The target in this assay is T1, 6xHis-tagged FAT1 cadherin #28-33 (3024-3789 aa) (UniProt Q14517 3024-3789).
T1 sequence: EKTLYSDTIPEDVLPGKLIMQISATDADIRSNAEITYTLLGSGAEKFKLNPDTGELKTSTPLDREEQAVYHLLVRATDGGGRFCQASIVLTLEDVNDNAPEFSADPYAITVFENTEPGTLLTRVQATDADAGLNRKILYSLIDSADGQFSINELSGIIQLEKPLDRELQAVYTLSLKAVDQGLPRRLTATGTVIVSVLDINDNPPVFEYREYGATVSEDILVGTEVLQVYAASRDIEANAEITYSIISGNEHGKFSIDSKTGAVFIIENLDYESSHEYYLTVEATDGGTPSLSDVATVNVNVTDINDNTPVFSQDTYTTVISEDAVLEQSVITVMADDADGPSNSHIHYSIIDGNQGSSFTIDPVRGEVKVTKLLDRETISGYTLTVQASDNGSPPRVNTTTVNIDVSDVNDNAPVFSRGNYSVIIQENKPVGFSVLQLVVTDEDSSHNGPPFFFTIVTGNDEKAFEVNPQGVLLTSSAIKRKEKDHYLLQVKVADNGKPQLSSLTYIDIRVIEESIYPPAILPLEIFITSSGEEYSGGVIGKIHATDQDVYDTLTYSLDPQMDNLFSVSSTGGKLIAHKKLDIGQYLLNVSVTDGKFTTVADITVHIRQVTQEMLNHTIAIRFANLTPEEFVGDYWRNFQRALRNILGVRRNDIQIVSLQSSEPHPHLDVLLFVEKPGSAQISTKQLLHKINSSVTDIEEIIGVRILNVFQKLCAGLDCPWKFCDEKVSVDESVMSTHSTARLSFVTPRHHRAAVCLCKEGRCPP
Put plainly: pull-down.

These results are taken from PMC11615309 (Nature Communications, 2024).

B1: GST-OLFM4 (OLFM4 without signal peptide) (domain or fragment)
chain: not shown
Regarding B1, the binding result was “binds”.
